Data set [1] has as its target ORC-1R367A hexamer R367A (Saccharomyces cerevisiae) (UniProt P54784+P32833+P54790+P54791+P50874+P38826). The experiment in a line: EMSA. The settings on record: 25 mM HEPES-KOH pH 7.6, 100 mM K glutamate, 5 mM Mg acetate, 5 mM CaCl2, 5 mM DTT, 5% glycerol, 0.1% Triton X-100, 2 mg/ml BSA, 1 mM ATP; 1.6 nM dsDNA or 3 nM ….
Data set [2] addresses ORC-1K362A hexamer K362A (Saccharomyces cerevisiae) (UniProt P54784+P32833+P54790+P54791+P50874+P38826). The experiment in a line: EMSA. The settings on record: 25 mM HEPES-KOH pH 7.6, 100 mM K glutamate, 5 mM Mg acetate, 5 mM CaCl2, 5 mM DTT, 5% glycerol, 0.1% Triton X-100, 2 mg/ml BSA, 1 mM ATP; 1.6 nM dsDNA or 3 nM ….
In data set [3] the test system is GH-Orc1 301-400 (Saccharomyces cerevisiae). The experiment in a line: EMSA. The conditions noted are these: competitor DNA; 25 mM HEPES-KOH pH 7.6, 100 mM K glutamate, 5 mM Mg acetate, 5 mM CaCl2, 5 mM DTT, 5% glycerol, 0.1% Triton X-100, 2 mg/ml BSA, 1 mM ATP; 1.6 nM dsDNA or 3 nM …; scale: fold lower affinity than ORC hexamer.
The target in data set [4] is T1, ORC (ScORC, ORC hexamer) (Saccharomyces cerevisiae, UniProt P54784+P54791).
T1 construct: gene ORC1; with Origin recognition complex subunit 2; Origin recognition complex subunit 3; Origin recognition complex subunit 5; Origin recognition complex subunit 6
T1 sequence (P54784 whole entry): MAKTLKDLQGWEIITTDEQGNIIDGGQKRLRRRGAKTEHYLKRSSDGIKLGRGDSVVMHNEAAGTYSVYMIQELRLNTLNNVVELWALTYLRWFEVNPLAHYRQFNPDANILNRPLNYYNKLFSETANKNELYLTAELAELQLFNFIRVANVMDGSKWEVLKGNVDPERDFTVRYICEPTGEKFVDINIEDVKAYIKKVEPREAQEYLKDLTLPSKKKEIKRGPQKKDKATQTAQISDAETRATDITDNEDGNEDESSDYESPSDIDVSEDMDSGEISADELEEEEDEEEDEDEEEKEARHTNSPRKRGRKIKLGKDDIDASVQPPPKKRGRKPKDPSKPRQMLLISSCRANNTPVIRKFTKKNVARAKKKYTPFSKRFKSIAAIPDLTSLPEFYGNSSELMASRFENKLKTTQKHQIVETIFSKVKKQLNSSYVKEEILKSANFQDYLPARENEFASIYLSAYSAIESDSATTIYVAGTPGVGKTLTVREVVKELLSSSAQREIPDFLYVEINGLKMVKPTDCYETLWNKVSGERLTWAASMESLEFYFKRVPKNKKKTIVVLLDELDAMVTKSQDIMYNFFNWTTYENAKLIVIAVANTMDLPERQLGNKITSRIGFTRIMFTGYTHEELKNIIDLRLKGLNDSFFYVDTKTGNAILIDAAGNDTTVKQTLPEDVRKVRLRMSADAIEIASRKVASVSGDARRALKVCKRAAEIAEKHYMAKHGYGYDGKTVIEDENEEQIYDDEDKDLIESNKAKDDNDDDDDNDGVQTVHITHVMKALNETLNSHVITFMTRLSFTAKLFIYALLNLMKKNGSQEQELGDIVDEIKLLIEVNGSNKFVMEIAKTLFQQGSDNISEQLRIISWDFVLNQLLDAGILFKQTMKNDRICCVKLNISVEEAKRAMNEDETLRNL
T1 sequence (P54791 whole entry): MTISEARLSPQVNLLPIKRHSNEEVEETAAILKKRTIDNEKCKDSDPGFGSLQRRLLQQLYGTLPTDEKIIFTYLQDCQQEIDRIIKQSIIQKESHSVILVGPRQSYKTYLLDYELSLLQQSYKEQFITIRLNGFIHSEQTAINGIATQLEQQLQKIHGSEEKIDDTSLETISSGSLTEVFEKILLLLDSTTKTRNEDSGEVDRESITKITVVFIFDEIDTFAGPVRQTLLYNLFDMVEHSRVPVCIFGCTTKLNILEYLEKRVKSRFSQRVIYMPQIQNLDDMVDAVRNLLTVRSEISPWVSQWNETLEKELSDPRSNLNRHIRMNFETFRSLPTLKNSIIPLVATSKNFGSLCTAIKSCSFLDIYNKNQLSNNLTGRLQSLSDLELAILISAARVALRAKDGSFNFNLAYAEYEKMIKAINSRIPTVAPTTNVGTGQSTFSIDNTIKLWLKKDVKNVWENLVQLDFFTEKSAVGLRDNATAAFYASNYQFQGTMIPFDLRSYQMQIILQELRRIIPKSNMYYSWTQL
T1 sequence (P32833 whole entry partner): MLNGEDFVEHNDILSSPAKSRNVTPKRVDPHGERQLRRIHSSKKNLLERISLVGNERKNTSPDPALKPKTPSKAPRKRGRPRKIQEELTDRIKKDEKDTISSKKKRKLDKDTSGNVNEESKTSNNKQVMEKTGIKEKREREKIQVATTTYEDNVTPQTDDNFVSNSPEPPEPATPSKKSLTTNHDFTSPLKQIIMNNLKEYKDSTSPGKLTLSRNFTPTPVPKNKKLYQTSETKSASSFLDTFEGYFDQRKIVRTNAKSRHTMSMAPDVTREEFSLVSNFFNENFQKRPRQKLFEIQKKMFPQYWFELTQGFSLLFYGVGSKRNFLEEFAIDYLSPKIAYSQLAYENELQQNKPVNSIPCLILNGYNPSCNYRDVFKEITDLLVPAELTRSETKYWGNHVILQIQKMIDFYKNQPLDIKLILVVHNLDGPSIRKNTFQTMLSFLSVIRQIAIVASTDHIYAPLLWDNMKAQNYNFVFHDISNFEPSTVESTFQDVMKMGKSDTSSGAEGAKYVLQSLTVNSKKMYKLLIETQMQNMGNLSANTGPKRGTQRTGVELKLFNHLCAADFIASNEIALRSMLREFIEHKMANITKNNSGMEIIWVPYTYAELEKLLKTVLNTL
T1 sequence (P54790 2-616 partner): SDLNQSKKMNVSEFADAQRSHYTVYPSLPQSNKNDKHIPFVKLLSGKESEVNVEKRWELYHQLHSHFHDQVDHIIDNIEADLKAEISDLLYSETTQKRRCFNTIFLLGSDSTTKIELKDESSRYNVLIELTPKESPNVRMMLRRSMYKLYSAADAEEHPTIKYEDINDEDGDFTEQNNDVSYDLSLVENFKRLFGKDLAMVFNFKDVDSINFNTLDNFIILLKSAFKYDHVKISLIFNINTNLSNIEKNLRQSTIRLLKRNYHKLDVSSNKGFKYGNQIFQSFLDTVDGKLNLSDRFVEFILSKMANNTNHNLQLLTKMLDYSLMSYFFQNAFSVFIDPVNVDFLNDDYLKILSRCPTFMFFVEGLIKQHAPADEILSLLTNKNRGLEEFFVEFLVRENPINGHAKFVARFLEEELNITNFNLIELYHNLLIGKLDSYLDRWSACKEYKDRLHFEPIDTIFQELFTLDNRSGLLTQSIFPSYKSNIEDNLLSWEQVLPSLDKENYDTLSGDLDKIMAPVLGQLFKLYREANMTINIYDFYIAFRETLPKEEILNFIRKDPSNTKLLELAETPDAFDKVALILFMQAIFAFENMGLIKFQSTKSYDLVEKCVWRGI
T1 sequence (P50874 whole entry partner): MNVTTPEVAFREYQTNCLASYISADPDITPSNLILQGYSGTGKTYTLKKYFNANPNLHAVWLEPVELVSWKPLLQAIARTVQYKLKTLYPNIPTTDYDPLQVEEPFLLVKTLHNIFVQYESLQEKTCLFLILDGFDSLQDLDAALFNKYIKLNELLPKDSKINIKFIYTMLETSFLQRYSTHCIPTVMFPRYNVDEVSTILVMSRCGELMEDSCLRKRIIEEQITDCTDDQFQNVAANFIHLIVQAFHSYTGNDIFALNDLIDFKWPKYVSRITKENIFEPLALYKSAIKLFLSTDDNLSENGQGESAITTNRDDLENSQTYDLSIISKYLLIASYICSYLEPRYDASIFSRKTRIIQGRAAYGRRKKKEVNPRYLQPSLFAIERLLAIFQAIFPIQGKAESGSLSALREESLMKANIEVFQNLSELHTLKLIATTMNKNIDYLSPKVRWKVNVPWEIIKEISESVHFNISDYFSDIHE
T1 sequence (P38826 whole entry partner): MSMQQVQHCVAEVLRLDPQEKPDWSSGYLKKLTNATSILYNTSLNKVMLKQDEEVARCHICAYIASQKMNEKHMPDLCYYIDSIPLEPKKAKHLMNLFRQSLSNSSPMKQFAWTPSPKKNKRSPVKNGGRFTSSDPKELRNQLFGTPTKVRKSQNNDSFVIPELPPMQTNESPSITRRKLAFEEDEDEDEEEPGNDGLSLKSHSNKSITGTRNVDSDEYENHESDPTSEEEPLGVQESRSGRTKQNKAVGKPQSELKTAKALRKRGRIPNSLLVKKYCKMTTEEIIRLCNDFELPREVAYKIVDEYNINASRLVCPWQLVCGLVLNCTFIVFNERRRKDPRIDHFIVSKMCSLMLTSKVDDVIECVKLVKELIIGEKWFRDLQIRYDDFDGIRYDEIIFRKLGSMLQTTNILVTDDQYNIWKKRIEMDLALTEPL
The experiment in a line: nitrocellulose filter binding, Scatchard plot. From the text: (§1) nitrocellulose filter binding, Scatchard plot on ORC (ScORC, ORC hexamer)

The target of data set [5] is T2, ORC (ScORC, ORC hexamer) (Saccharomyces cerevisiae, UniProt P54784+P54791, P54784:K362A).
T2 construct: gene ORC1; with Origin recognition complex subunit 2; Origin recognition complex subunit 3; Origin recognition complex subunit 5; Origin recognition complex subunit 6
T2 sequence (P54784 whole entry K362A): as the sequence (P54784 whole entry) above, with K362A counted along it
T2 sequence (P54791 whole entry): as the sequence (P54791 whole entry) above
T2 sequence (P32833 whole entry partner): as the sequence (P32833 whole entry partner) above
T2 sequence (P54790 2-616 partner): as the sequence (P54790 2-616 partner) above
T2 sequence (P50874 whole entry partner): as the sequence (P50874 whole entry partner) above
T2 sequence (P38826 whole entry partner): as the sequence (P38826 whole entry partner) above
The experiment in a line: nitrocellulose filter binding, Scatchard plot.
Excerpt: as §1

In data set [6] the target is T3, ORC (ScORC, ORC hexamer) (Saccharomyces cerevisiae, UniProt P54784+P54791, P54784:R367A).
T3 construct: gene ORC1; with Origin recognition complex subunit 2; Origin recognition complex subunit 3; Origin recognition complex subunit 5; Origin recognition complex subunit 6
T3 sequence (P54784 whole entry R367A): as the sequence (P54784 whole entry) above, with R367A counted along it
T3 sequence (P54791 whole entry): as the sequence (P54791 whole entry) above
T3 sequence (P32833 whole entry partner): as the sequence (P32833 whole entry partner) above
T3 sequence (P54790 2-616 partner): as the sequence (P54790 2-616 partner) above
T3 sequence (P50874 whole entry partner): as the sequence (P50874 whole entry partner) above
T3 sequence (P38826 whole entry partner): as the sequence (P38826 whole entry partner) above
The experiment in a line: nitrocellulose filter binding, Scatchard plot.
Excerpt: as §1

In data set [7] the target is ORC hexamer wild-type (Orc1-TEV-His/Orc2/3/4/5/6) (Saccharomyces cerevisiae, UniProt P54784;P32833;P54790;P54791;P50874;P38826 1-914;1-620;1-616;1-529;1-479;1-435). The experiment in a line: EMSA; 1 mM ATP, competitor dsDNA; 25 mM HEPES-KOH pH 7.6, 100 mM K glutamate, 5 mM Mg acetate, 5 mM CaCl2, 5 mM DTT, 5% glycerol, 0.1% Triton X-100, 2 mg/ml BSA, 1 mM ATP; 1.6 nM dsDNA or 3 nM ssDNA, 300 ng GC-rich competitor in 5 ul, 10 min, room temperature. The settings on record: protein: recombinant; tags: TEV-His on Orc1 (C-terminal by name); copies: 1;1;1;1;1;1; label: 3' Cy5-ddUTP (terminal transferase).

A further data set deals with ORC-1K362A hexamer (Saccharomyces cerevisiae, UniProt P54784;P32833;P54790;P54791;P50874;P38826 1-914;1-620;1-616;1-529;1-479;1-435, K362A). The description is as above. The conditions noted are these: protein: recombinant; tags: TEV-His on Orc1; copies: 1;1;1;1;1;1; label: 3' Cy5-ddUTP (terminal transferase).
The next data set concerns the target ORC-1R367A hexamer (Saccharomyces cerevisiae, UniProt P54784;P32833;P54790;P54791;P50874;P38826 1-914;1-620;1-616;1-529;1-479;1-435, R367A). The description is as above. The conditions noted are these: protein: recombinant; tags: TEV-His on Orc1; copies: 1;1;1;1;1;1; label: 3' Cy5-ddUTP (terminal transferase).
Data set [8] has as its target T4, S. cerevisiae origin recognition complex (ORC) hexamer, wild type (S. cerevisiae, UniProt P54784 1-914; P32833 1-620; P54790 1-616; P54791 1-529; P50874 1-479; P38826 …).
T4 construct: Orc1, largest subunit of the S. cerevisiae origin recognition complex; expressed from ORC1-TEV-His; Orc2, subunit of the S. cerevisiae origin recognition complex; Orc3, subunit of the S. cerevisiae origin recognition complex; Orc4, subunit of the S. cerevisiae origin recognition complex; Orc5, subunit of the S. cerevisiae origin recognition complex; Orc6, subunit of the S. cerevisiae origin …
The experiment in a line: native gel or EMSA; ORC and Cdc6 incubated with Cy5-labeled ARS1 DNA (1.6 nM) and 300 ng GC-rich competitor, 10 min at room temperature, 25 mM HEPES-KOH pH 7.6, 100 mM potassium glutamate, 1 mM ATP; Cdc6-dependent supershift of the ORC-ARS1 complex on a 4% polyacrylamide gel. The conditions noted are these: both partners purified.

As for “CCCACATGTCAATTTAGTATATTACTGTATATCTAGTTCATTCTTCAAAATAAAGAATGCATAACCATTTTTTTATGTTTTTTCCGGAATTGGCTAAATTCACAAAAAAAAAGAGCATAAAGCGAATTGAATTGTCTCGCCAAGAAAACGCACTGAGAGGACGATTGATCCTCCAGACAAGATCGGAATTTTTACTTTTCTGTTTTTAACGACGTCGG (double strand) [ARS609 fragment]”, the binding entry in [1] and in data set [2] was “binds more weakly” in each case.

In turn, ARS1 wild-type fragment came in with a binding signal in data set [3] above 100.

As for “CCGACGTCAGATCTTAATTTATCTCATGAAGTAATGATACCTCAGCGATGTGCTCGCTCGTTAGTATGCTTCATAAATTCATTATTATTTTTTTTTGGAAGTGTTTTTCGACAAAAGTTGCATTTTTACGAAGGATATGTAAACTCAAGAAGTACTAAATAAATATAAATACAATTCGAAAATTTGAAAAAAGTAGGAGACAACACTTTCCTTCCTCACGAAGAAGTTAAGCTTACATGTGGG (double strand) [ARS306 fragment]”, the binding result in data set [1] and in [2] was “binds more weakly” throughout.

As to `Nc1ncnc2c1ncn2[C@@H]1O[C@H](COP(=O)(O)OP(=O)(O)OP(=O)(O)O)[C@@H](O)[C@H]1O` [ATP], the Kd at ORC (ScORC, ORC hexamer) [4] was 0.031 µM; on ORC (ScORC, ORC hexamer) [5] it was 0.035 µM; on ORC (ScORC, ORC hexamer) [6], 0.032 µM.

B1: DL11 (ssDNA)
DNA: GTTACCATGGCATCGAGTTCTTCAACAAGACTACAATGG
As to B1, the binding result (in [7]; in the data set with ORC-1K362A hexamer; with ORC-1R367A hexamer) was “binds” throughout.

B2: ScCdc6 (natural protein, S. cerevisiae, UniProt P09119 1-513, looked up)
chain: MSAIPITPTKRIRRNLFDDAPATPPRPLKRKKLQFTDVTPESSPEKLQFGSQSIFLRTKALLQKSSELVNLNSSDGALPARTAEYEQVMNFLAKAISEHRSDSLYITGPPGTGKTAQLDMIIRQKFQSLPLSLSTPRSKDVLRHTNPNLQNLSWFELPDGRLESVAVTSINCISLGEPSSIFQKIFDSFQDLNGPTLQIKNMQHLQKFLEPYHKKTTFVVVLDEMDRLLHANTSETQSVRTILELFLLAKLPTVSFVLIGMANSLDMKDRFLSRLNLDRGLLPQTIVFQPYTAEQMYEIVIQKMSSLPTIIFQPMAIKFAAKKCAGNTGDLRKLFDVLRGSIEIYELEKRFLLSPTRGSLNSAQVPLTPTTSPVKKSYPEPQGKIGLNYIAKVFSKFVNNNSTRTRIAKLNIQQKLILCTIIQSLKLNSDATIDESFDHYIKAITKTDTLAPLQRNEFLEICTILETCGLVSIKKTKCKGKTKRFVDKIDVDLDMREFYDEMTKISILKPFLH
notes: Cdc6 of S. cerevisiae; source: E. coli, overexpressed and purified
Turning to B2, the binding result in [8] is listed as “binds”.

(Values after paper PMC4601075, “Specific binding of eukaryotic ORC to DNA replication origins depends on highly conserved basic residues” (Scientific Reports, 2015).)
